According to paper PMC6461802, “Coupling of ssRNA cleavage with DNase activity in type III-A CRISPR-Csm revealed by cryo-EM and biochemistry” (Cell Research, 2019):
Positions count from the first letter of the chain named. In names and notes the source's numbering stands. Several values for one entry are separate records, joined by “and”; a condition that tells them apart may be missing. Equal values may be shown once.

Assays:
[1] = molecular target: the molecule itself; assay: cryo-EM structure; apo state: StCsm complex with 40 nt crRNA, wild-type Csm3; big (3.4 Å) and small (3.3 Å) particle populations; ~0.4 mg/mL, buffer 10 mM Tris-HCl pH 8.0, 150 mM NaCl, 3 mM DTT
[2] = molecular target: the molecule itself; assay: cryo-EM structure; target ssRNA-bound state: StCsm complex with 40 nt crRNA and 49 nt target ssRNA, Csm3 D33A; big (3.4 Å) and small (3.5 Å) particle populations; ~0.4 mg/mL, buffer 10 mM Tris-HCl pH 8.0, 150 mM NaCl, 3 mM DTT
[3] = molecular target: T1, Cas10 (Csm1);Csm2;Csm3;Csm4 (Streptococcus thermophilus …, UniProt A0A0A7HFE1;A0A0A7HIX1;A0A0A7HIF0;A0A0A7HGA1 1-758;1-121;1-220;1-299, |||); assay: cryo-EM; small conformation, 3.3 A; endogenous ATP in Cas10; Cryo-EM: complex ~0.4 mg/mL, purified in 10 mM Tris-HCl pH 8.0, 150 mM NaCl, 3 mM DTT; grids blotted at 4 C; ternary reconstitution conditions not given; conditions: protein: recombinant;recombinant;recombinant;recombinant; tags: ;His (N-terminal, pET-28a);;; copies: 1;3;5;1; single strand, 1 copy
T1 sequence 1: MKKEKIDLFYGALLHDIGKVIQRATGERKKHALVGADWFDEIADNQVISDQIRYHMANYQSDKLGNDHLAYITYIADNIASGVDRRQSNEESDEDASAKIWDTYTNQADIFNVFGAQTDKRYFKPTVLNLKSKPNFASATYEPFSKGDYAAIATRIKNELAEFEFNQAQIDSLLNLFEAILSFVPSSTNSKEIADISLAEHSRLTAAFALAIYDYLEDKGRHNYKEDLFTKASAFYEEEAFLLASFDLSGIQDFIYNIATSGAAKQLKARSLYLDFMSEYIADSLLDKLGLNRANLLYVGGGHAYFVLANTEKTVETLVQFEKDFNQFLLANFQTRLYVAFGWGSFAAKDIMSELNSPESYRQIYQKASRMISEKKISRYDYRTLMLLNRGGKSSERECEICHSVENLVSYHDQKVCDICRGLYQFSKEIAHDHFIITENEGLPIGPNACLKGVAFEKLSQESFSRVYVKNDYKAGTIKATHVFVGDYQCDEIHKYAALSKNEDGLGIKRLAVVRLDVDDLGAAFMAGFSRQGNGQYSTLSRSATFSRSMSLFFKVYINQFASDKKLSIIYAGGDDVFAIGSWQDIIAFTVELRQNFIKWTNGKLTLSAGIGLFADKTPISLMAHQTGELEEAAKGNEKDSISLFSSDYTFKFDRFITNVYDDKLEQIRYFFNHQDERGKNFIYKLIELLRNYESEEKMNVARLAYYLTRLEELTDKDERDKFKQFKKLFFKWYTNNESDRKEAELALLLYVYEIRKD
T1 sequence 2: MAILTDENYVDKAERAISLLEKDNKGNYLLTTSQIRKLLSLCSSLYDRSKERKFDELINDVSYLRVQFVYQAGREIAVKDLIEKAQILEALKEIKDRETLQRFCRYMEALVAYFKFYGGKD
T1 sequence 3: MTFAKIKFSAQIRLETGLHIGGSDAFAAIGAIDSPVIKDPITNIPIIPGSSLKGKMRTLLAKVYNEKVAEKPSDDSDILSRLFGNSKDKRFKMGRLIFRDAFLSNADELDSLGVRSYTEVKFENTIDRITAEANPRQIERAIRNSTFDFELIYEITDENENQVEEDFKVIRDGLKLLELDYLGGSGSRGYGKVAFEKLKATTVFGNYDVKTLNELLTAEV
T1 sequence 4: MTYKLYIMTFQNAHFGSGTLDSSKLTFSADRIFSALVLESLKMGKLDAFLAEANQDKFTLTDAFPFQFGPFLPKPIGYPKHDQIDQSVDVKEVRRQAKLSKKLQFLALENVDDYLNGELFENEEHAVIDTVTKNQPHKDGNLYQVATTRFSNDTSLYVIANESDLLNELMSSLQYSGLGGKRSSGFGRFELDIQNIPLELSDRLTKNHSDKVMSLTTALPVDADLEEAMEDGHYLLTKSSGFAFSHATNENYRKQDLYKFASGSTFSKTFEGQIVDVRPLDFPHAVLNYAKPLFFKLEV

B1: Csm3 of the Streptococcus thermophilus type III-A Csm complex (wild type, apo state) (natural protein, Streptococcus thermophilus DGCC8004)
chain: T1 sequence 3
notes: Csm3, Streptococcus thermophilus DGCC8004; also called Csm3a
stoichiometry N [1]: 7 and 5

B2: Csm3 D33A of the Streptococcus thermophilus type III-A Csm complex (target ssRNA-bound state) (natural protein, Streptococcus thermophilus DGCC8004)
chain: T1 sequence 3 with D33A
notes: Csm3, Streptococcus thermophilus DGCC8004, with D33A to eliminate ssRNA cleavage
stoichiometry N [2]: 7 and 5

B3: Csm2 of the Streptococcus thermophilus type III-A Csm complex (natural protein, Streptococcus thermophilus DGCC8004)
chain: T1 sequence 2
notes: Csm2, Streptococcus thermophilus DGCC8004; csm2 is present both on the untagged gene cassette and on the His-tag plasmid, so the 3 or 5 copies in the complex may be a mix of tagged and untagged chains; No tag removal is described; also called Csm2a; Csm2b
stoichiometry N [1]: 5 and 3

ACGGAAACUUUCGUAACUGUUUAAUUCUGUUCACUUAUUC (ssRNA) [40 nt crRNA]
binding result [3]: binds
